# Experiment: soluble on expression in E. coli; label from the status in PepcDB or PDB records
row,Sequence,soluble on expression in E. coli
1,MGSDKIHHHHHHMSELTDLLLQGPRSAPELRQRLAISQATFSRLVAREDRVIRFGKARATRYALLRPYRGIERIPVWRVDDTGKAHKFADIRLCWPQGSCLVTGADGDEQWFDGLPWYLTDLRPQGFLGRAWGRKLAAQLNLTDDIRLWQEEDVLYALTVFNGEYTGGWLVGEGNYQRWITAQHPAEIPLDQKLTHYEQLASDALAGEIVGSSAGGEQPKFTYYAQTPSGNKHVLVKFTVPQQTAVSQRWGDLLIAESIAAQILRDGGIHAIESTVLVTSNRQVFLEAERFDCKGNDGRLPIVSLEAVQSEFISSPGSWPQAMRRLCEQQLVTHQSVAQTEVIWAFGRLIANSDMHAGNLSFYLSEPPFALTPVYDMLPMVYAPNSAGMLRDAAIEVKFDLNVSKSAWLTAIPLAQQFWQTVARDPRISEAFRHIAQEMPEKIRQIEEKVARMGG,not soluble
2,MSLAYTKKKYTPKTKEQIKEETKEIMDKVLTDITKYYRSPEDMLELANFMAKFSNYSPKNMQLIRSQFENAYACANFKAFKDAGFHVNKGETAMKVFHPYVKEYVRDPRTKLAIPLGKLTEEQKKQVKNGELKVEKQTNYYLKATAFDISQTNAKPEDLPKIFPNRQFNFEINDENKELLKIGIQALAEKENIKIKTMGQGALVKELGNVHGAYVQVLDSSYSQIVMNPRNTETNELSVAIHELAHAKLHGNKIDPLEHTPTKEFEAELTSYIVCKHYGMDTSESAVPYIAQWTKNGQDIEEKDKSIMRVHETASSFINTIDKKISELQREGHHHHHH,soluble
3,MGKFFFFGFVGLLLSWGALYYRYSDEKNTSARKYRFDPPPALVGNLFINAGLEKAEHILDGKIVGPESMVVDDEAIYVSVNDAKVLKIVDGRVVSKASYSEKSKFFPDCGHFDTEPECGRPLGIRRLVAGKPKFVVCDAYLGVYIVDFTDEQNPISTQILDSKVPIDGLKPRFLNDLDVISEDELIISDSSTRHDRRHFMAAILEHQADGRIFHLKISTKSVKVLADKLYFPNGIQLTEDKKSVIFAECSMARIKKLTIASKKVEMFAANLPGLPDNIRSSGRGTYWVGLTATRSATHPSLLDRLGSLPGIRQFLVDIVPGPYWKPLLGLFKNPHSIIIELDSVGKIVRSLHDVTGKHVGDASQVTEHNGHLYIGSFADHYIAKVKL,not soluble
4,MSLNPVNGAILSIEISHPNGFEIDENISAYHDAEYYMDRIFDSGNYDSLIVLTSIKILSQHWEIDNDMVVTSQSIRQLAIDTINSKAESGTIKNYWFKLQSLCEEFKNLSQETLSLSVFDNQVLTLNVNGHGIFRKSAFFESFANQKLNSADGKLMLIFNKFETFISRKSYHKLHEELLQLRKISANEITNLFTKHIEGKISTNEIQTILKDLEQIPGIVEIVKSLIGSSGFELIVDANSISSKELGAFHKISTVMIFKNIMETHKTLLLDLVVLFLTCETNDQIVEFVNQIRATLVQYDVMEVVFTTCLNKGEVETKNMGQVQNSIFWSSVVATHSQLKRLIESLQLNDGYEYFYNNVLPDDYLVDVVIELINNKEYFFLQKKFLTKLNQENKVEKLLVGLIYLFNNDVKSFYKIFNDYSNFQNFTENKIKNLNQDVNLQKFIEALLSNPSKSQYFHGLSKLVQSQIKTNDNKSQQEEHCFIEIASDFETLAIENEGHHHHHH,soluble
5,MAGDPMWKTDVKLNADKFRKIDVHSHIQVLGYPFNVSITPQEFLSLMEAYNIEVAIISDVDNENIAKIVREYPDKLVGIYWANPRDKNSIKEAEKFLEKFEFRGIKLHPLLNMFSPADPKVEDIMRIAEEFNVHVQVHSGHPPTSLPWQIEELARKFPEVKIVMVHMGHGNAYYIQGAIEVAERNENVYLETSGMPMPSKIAEAYKVAPKRVVFGIDLPCHHPVVEIAKVLTSGLDEKGMERVFYENAKVLLLEHHHHHH,not soluble
6,MRQIFPGLDPNTYVQHPLHSSERMWPETNCYIDLWIEVLASKGLSPEAMFGFTLTQDFEGDQFTFFKVPLEDLEALYGVRATELAIFDKVEDHIATQLERGRICLIEMDSFYMPDTHGVGYQKEHGKTTVAINRLDLEKRELDYFHNAGFFHLSGEDFDGLFQHHLAETDPPFLPYTEFAKFADSNPSPAHIRKTAERLLKFHFSRRPSANPVRAFAKVFPAQVEKVADRPFGFFHKYAFNTLRQLGANFELAASHLEWLDKQGFSDARDHALKISEVAKTVQFQLARAVTRRKFDALATVLDPAADAWDGLMESLGEKLSDASEAA,soluble
7,MSIMKQRLPLGEFSSSKINKLAIANIADASEPRNHGENNVGTVCLPSIKSLMVSPEVYENTKSLPVPLMRSSGGGMACASKSSCQDGISTKTTSRDYSELSKKLQIRLQFAYYKYKTKQTDKNFTDLKSKHSITRPSKVATHSKSEPLTRRRKLVLSQGHYKTPARSKIKTPSSICSHDNTSSFTSFRGVSESSSTTADMNVADTTTPIRNNINTKHSNSHNRTLYQRQETPTSIKAAKSLIHLFTSNQ,not soluble
8,IEDEVIYSKKRYKLKREIDKLFLDEEYFQIEPQLFEEYDEFTTINNKIPEESMVKVVNGKVMVLRADITTSIIKSLVPRWEDGLKLKLFYNSSIYKNKNTVGIKEIRQIGCEYLGEASVEADREVVKLALKILEKYNNNFILEVGSSKYIHGLLEELNLNKNCENQIKNLLYTKNTHELKVYIEELKIKHEVKELLSNILSLQGNLYNVIEKSNKFYCNNKMKQALEELKQVNNLIEECNFLDKARFDLSMITMLDYYEGIMFRGYYPNSYKEILSGGRYDSLTKEYGKEIPAIGFTLSVDELMKYVYK,not soluble
9,MVLASSSAFALKDDVNQPINIVSDNQSLDMEKSVVTFTDNVVITQGSIVIKANKVVITRPAEKSGKKETVEAFGTPVTFHQQLDNGKPVDGKANKVHYDLGNEFLTLTNNAELKQLDSKINGSVITYDVKKQQLKANGNGKSRVTTVLIPSQLQQAKGK,not soluble
10,GPGSMVVKDISLADWGRKELDIAETEMPGLMAAREEFGKSQPLKGARISGSLHMTIQTAVLIETLKVLGAEVRWASCNIFSTQDHAAAAIAATGTPVFAVKGETLEEYWTYTDQIFQWPDGEPSNMILDDGGDATMYILIGARAEAGEDVLSNPQSEEEEVLFAQIKKRMAATPGFFTKQRAAIKGVTEETTTGVNRLYQLQKKGLLPFPAINVNDSVTKSKFDNKYGCKESLVDGIRRGTDVMMAGKVAVVCGYGDVGKGSAQSLAGAGARVKVTEVDPICALQAAMDGFEVVTLDDAASTADIVVTTTGNKDVITIDHMRKMKDMCIVGNIGHFDNEIQVAALRNLKWTNVKPQVDLIEFPDGKRLILLSEGRLLNLGNATGHPSFVMSASFTNQVLGQIELFTRTDAYKNEVYVLPKHLDEKVARLHLDKLGAKLTVLSEEQAAYIGVTPQGPFKSEHYRY,soluble
11,MGSDKIHHHHHHMEFYERAKKYEYKFTDTEDMIIEYMRKNKEEIVKLSIQSLADKFFTVPNTIVRLCKKMEYDGFSQLKNNLKEELKNENKEPKNGFESDIKKTLELIDYEKINKVADIIQKSRSIIVYGIGQNIPLCEILVKEIRGGHDNITYYSQRHEVLHDIGKLGEQDMFFALSLSGETKEVIEAAKTAVNKGCKVVALTHICENQLQQIADISLYCYSTIKQVNGYNISDKVPIMMIMRAIIEQYWLR,not soluble
12,MSLNEPLPDRQTELPAVKKENHGEYLQPRDLSKIPNTAFGDQVKRGYSLFVNSQQMRGKYVGNEQNCVNCHMEAGRKANAAPLWAAYMAYPAYRKKNDRVNSYADRIQGCFEYSMNGKAPAYDSPEIVALSAYAYWLAMGGLLDEGHHHHHH,soluble
13,MKMSELEKMLKGEHFDGASAEIEALRSQAGRLKLEINQSLDEAERYALQRELFGHLGHKSCVQPPFHCEFGKTIRIGDHTFINMNVVMLDGAPITIGDHVLIGPSTQFYTASHSLDYRRRQAWETICKPIVIEDDVWIGGNVVINQGVTIGARSVVAANSVVNQDVPPDTLVGGTPARILRSLKDPAESMAE,not soluble
